{"source": "patent US8940861B2", "about": "“Variants of ancestral uricases and uses thereof” (Georgia Tech Research Corporation, priority 2010, dated 2015)", "proteins": {"B1": {"name": "pig uricase, SEQ ID NO:10 (Sus scrofa) (protein)", "chain": "MAHYRNDYKKNDEVEFVRTGYGKDMIKVLHIQRDGKYHSIKEVATSVQLTLSSKKDYLHGDNSDVIPTDTIKNTVNVLAKFKGIKSIETFAVTICEHFLSSFKHVIRAQVYVEEVPWKRFEKNGVKHVHAFIYTPTGTHFCEVEQIRNGPPVIHSGIKDLKVLKTTQSGFEGFIKDQFTTLPEVKDRCFATQVYCKWRYHQGRDVDFEATWDTVRSIVLQKFAGPYDKGEYSPSVQKTLYDIQVLTLGQVPEIEDMEISLPNIHYLNIDMSKMGLINKEEVLLPLDNPYGRITGTVKRKLTSRL"}}, "substrate": "O=c1[nH]c(=O)c2[nH]c(=O)[nH]c2[nH]1", "experiment": "purified protein, by the assay type", "conditions": "other: 0.1M Na2HPO4/Na2H2PO4, pH 7.4, 24° C.", "data": [{"protein": "B1", "values": [{"measurement": "Km", "value": 2.1, "unit": "µM"}, {"measurement": "kcat", "value": 7.83, "unit": "s⁻¹"}]}]}
